The values below come from article PMC4895218, “Structural flexibility of the periplasmic protein, FlgA, regulates flagellar P-ring assembly in Salmonella enterica” (Scientific Reports, 2016).

The target of assay [1] is T1, N-terminally His-tagged FlgI (Salmonella enterica serovar Typhimurium, UniProt P15930 20-365).
T1 construct: FlgI, flagellar P-ring component protein, Salmonella enterica serovar Typhimurium; Probably without its Sec signal peptide (surmise); also called His-FlgI; source: E. coli Origami2 (DE3), co-expressed, in cell extract (pull-down); purified (SPR); not shown: His tag, N-terminal, kept
T1 sequence (looked up): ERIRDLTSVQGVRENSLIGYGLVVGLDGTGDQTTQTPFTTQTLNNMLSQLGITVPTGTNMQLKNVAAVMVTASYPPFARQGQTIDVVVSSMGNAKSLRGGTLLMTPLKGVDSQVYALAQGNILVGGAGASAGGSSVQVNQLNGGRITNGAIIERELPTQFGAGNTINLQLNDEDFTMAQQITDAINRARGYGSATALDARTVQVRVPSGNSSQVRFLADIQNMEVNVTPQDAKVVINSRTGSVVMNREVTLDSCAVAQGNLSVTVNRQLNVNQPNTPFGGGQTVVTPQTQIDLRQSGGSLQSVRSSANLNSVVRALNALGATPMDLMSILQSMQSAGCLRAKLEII
In words: SPR; Biacore T200, 25 °C; FlgI immobilised on CM5 chip by amine coupling, FlgA or FlgA R113C-S190C as analyte; 10 mM HEPES, 150 mM NaCl, 0.05% Surfactant P20, pH 7.4; two-state reaction model. The settings on record: both partners purified.

The target of assay [2] is T1, N-terminally His-tagged FlgI. In words: SPR; Biacore T200, 25 °C; FlgA or FlgA R113C-S190C immobilised on CM5 chip by amine coupling, FlgI as analyte; 10 mM HEPES, 150 mM NaCl, 0.05% Surfactant P20, pH 7.4; two-state reaction model. To be noted: both partners purified. In general terms: Surface plasmon resonance follows binding to a sensor surface in real time, without labels.

B1: FlgA_(R113C-S190C) (purified, histidine tag removed) (natural protein)
chain: QDINAQLTTWFSQRLAGFSDEVVVTLRSSPNLLPSCEQPAFSMTGSAKLWGNVNVVARCANEKRYLQVNVQATGNYVAVAAPIARGGKLTPANVTLKRGRLDQLPPRTVLDICQIQDAVSLRDLAPGQPVQLTMIRQAWRVKAGQRVQVIANGEGFSVNAEGQAMNNAAVAQNARVRMTSGQIVSGTVDCDGNILINL
modifications: engineered disulfide bond between C113 and C190
notes: FlgA, Salmonella enterica serovar Typhimurium, with R113C and S190C; numbers count on: the mature protein; also called covalently closed form of FlgA; source: purified; N-terminal-fused histidine tag removed with thrombin prior to gel filtration; not shown: His tag, N-terminal, cleaved
For orientation: Kd means the free concentration of one partner at which half of the binding sites on the other are occupied at equilibrium, for simple one-to-one binding. Take B1: the Kd came to 106 nM in assay [1] and 166 nM in assay [2].

B2: FlgA (purified, histidine tag removed) (natural protein, Salmonella enterica serovar Typhimurium)
chain: QDINAQLTTWFSQRLAGFSDEVVVTLRSSPNLLPSCEQPAFSMTGSAKLWGNVNVVARCANEKRYLQVNVQATGNYVAVAAPIARGGKLTPANVTLKRGRLDQLPPRTVLDIRQIQDAVSLRDLAPGQPVQLTMIRQAWRVKAGQRVQVIANGEGFSVNAEGQAMNNAAVAQNARVRMTSGQIVSGTVDSDGNILINL
notes: FlgA, Salmonella enterica serovar Typhimurium; numbers count on: the mature protein (Q1-L198); The crystallised FlgA was another construct (C-terminal hexa-histidine-tagged precursor purified from the periplasm of E. coli); source: purified; N-terminal-fused histidine tag removed with thrombin prior to gel filtration; not shown: His tag, N-terminal, cleaved
In the case of B2, the Kd in assay [1] was found to be 126 nM; in assay [2], 354 nM.
